Data on eleven molecules can be found in US20140186359A1 (TORAY INDUSTRIES, published 2014).

T1: human CAPRIN-1 expressed on the surface of human cancer cells (human, UniProt Q14444 2-709)
T1 sequence: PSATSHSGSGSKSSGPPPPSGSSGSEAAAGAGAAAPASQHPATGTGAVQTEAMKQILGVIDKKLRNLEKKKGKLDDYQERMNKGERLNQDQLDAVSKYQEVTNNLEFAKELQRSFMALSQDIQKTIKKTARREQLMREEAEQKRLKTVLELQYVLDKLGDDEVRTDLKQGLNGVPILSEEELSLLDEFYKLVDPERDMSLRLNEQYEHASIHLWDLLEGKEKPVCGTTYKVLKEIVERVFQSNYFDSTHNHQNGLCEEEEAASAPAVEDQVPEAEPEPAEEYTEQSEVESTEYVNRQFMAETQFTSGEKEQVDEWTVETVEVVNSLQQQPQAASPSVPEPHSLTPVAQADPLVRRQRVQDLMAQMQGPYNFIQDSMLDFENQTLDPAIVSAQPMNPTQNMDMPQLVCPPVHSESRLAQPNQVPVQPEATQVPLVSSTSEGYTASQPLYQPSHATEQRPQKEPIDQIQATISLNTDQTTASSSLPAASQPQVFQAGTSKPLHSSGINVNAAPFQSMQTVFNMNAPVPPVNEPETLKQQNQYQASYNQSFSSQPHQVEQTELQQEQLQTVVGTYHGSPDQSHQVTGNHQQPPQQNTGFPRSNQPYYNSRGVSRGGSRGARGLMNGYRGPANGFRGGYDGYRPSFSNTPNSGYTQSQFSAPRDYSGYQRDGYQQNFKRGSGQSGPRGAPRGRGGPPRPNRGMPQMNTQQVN

B1: human-mouse chimeric comparative monoclonal antibody 6 (antibody, human IgG1, kappa)
heavy: not shown
light: DRVSITCKASQNVRTAVAWYQQKPRQSPKALIYLASNRDTGLPDRFPGRGSGTDFTLNITNVQSEDLEDYFCLQHCNYPNEFRGCTKVPITVAAPSVFIFPPSDEQLKSGTASVVCLLNNFYPREAKVQWKVDNALQSGNSQESVTEQDSKDSTYSLSSTLTLSKADYEKHKVYACEVTHQGLSSPVTKSFNRGEC
B2: human-mouse chimeric comparative monoclonal antibody 5 (antibody, human IgG1, kappa)
heavy: not shown
light: GLFCSVERCHYQLQSSQNLLSIVNRYHYMSGNPPKLLVYPALLIYEASITKSCVPDRFTRSGSGTNFTLTINFVHADDLIFYYCQHNRGSFLPSSSVQVPRRRSNTVAAPSVFIFPPSDEQLKSGTASVVCLLNNFYPREAKVQWKVDNALQSGNSQESVTEQDSKDSTYSLSSTLTLSKADYEKHKVYACEVTHQGLSSPVTKSFNRGEC
B3: human-mouse chimeric comparative monoclonal antibody 8 (antibody, human IgG1, kappa)
heavy: not shown
light: EFHAVSLGQRATISCRASESVDSYGNSFMHWYQQKPGQPPKLLIYRASNLESGIPARFSGSGSRTDFTLTINPVEADDVATYYCQQSNEDPGRSEVVPSWRSNKTVAAPSVFIFPPSDEQLKSGTASVVCLLNNFYPREAKVQWKVDNALQSGNSQESVTEQDSKDSTYSLSSTLTLSKADYEKHKVYACEVTHQGLSSPVTKSFNRGEC
B4: human-mouse chimeric comparative monoclonal antibody 10 (antibody, human IgG1, kappa)
heavy: not shown
light: RLPFYSLEQRATISYRASKNVSTSGYSYMHWNQQKPGQPPKLLIYLVSNLESGVPARFSGSGSGTDFTLNIHPVEEEDAATYYCQHIRELTRSELVPSWKSNTVAAPSVFIFPPSDEQLKSGTASVVCLLNNFYPREAKVQWKVDNALQSGNSQESVTEQDSKDSTYSLSSTLTLSKADYEKHKVYACEVTHQGLSSPVTKSFNRGEC
B5: human-mouse chimeric comparative monoclonal antibody 7 (antibody, human IgG1, kappa, V domains shown)
VH: LQESGAELARPGASVKLSCKASGYTFTSYWMQWVKQRPGQGLEWIGAIYPGDGDTRYTQKFKGKATLTADKSSSTAYMQLSSLASEDSAVYYCARGEYGNYFAYWGQGTTVTVSS
VL: TSDASLGERVTITCKASQDINSYLSWFQQKPGKSPKTLIYRANRLVDGVPSRFSGSGSGQDYSLTISSLEYEDMGIYYCLQYDEFPLTFGGGTKLEIKQ
B6: human-mouse chimeric comparative monoclonal antibody 4 (antibody, human IgG1, kappa, V domains shown)
VH: EVQLHQFGAELVKPGASVKISCKASGYTFTDYNMDWVKQSHGKSLEWIGDINPNYDSTSYNQKFKGKATLTVDKSSSTAYMELRSLTSEDTAVYYCARSRSYDYEGFAYWGQGTLVTVSA
VL: SGDRVSLSCRASQSISNYLHWYQQKSHESPRLLIKYASQSISGIPSRFSGSGSGTDFTLSINSVETEDFGMYFCQQSNSWPYTFGAGTKLEIKQ
B7: chicken monoclonal antibody #1 (antibody, V domains shown)
VH: AVTLDESGGGLQTPGGALSLVCKASGFTFRSHSMFWVRQAPGKGLEYVAGIYGVGRSIRYGSAVKGRATMSRDNGQSTVRLQLNNLRAEDTATYYCAKSGYFSNSRYWDSGAYFIDAWGHGTEVIVS
VL: ALTQPASVSANPGETVEITCSGGYSNYGWYQQKSPGSAPVTVIYYNDKRPSDIPSRFSGSKSGSTATLTITGVQAEDEAVYFCGGYDSSTDAGIFGAGTTLTV
notes: Chicken hybridoma antibody; also called anti-CAPRIN-1 chicken monoclonal antibody #1
B8: mouse monoclonal antibody #1 (antibody, V domains shown)
VH: GPGLVQPSQSLSITCTVSGFSLTTYDLHWVRQSPGKGLEWLGVIWSGGSTDYNAAFISRLSISKDNSKSQVFFKMNSLQANDTAIYYCARNYGYSAWFAYWGQGTLVTVSA
VL: DVLMTQTPLSLPVSLGDQASISCRSSQSIVHSNGNTYLEWYLQKPGQSPKLLIYKVSNRFSGVPDRFSGSGSGTDFTLKISRVEAEDLGVYYCFQGSHVPLTFGAGTKLELKR
notes: Mouse hybridoma antibody; detected with anti-mouse IgG; also called anti-CAPRIN-1 monoclonal antibody #1
B9: mouse monoclonal antibody #2 (antibody, V domains shown)
VH: GGGLVKPGGSLKLSCAASGFTFSSYGMSWVRQTPEKRLEWVATISSGGSYTYYPDSVKGRFTISRDNAKNTLYLQMSSLRSEDTAMYYCASLASYYFDYWGQGTTLTVSS
VL: DVQMIQSPSSLSASLGDIVTMTCQASQGTSINLNWFQQKPGKAPKLLIYGASSLEDGVPSRFSGSCFGTDFTLTISSLEDEDMATYFCLQHSYLPPLTFGAGTKLELKR
notes: Mouse hybridoma antibody; detected with anti-mouse IgG; also called anti-CAPRIN-1 monoclonal antibody #2
B10: chicken monoclonal antibody #3 (antibody, V domains shown)
VH: AVTLDESGGGLQTPGGGLSLVCKGSGFTFSSFGMFWVRQAPGKGLEFVASISDNGRSTYYGSAVKGRATISRDDGQSTVRLQLNNLRAEDTGTYYCAKNAYVGRGCCFSYSIDAWGHGTEVIVS
VL: ALTQPASVSVNPGETVKITCSGGGSSSDAYGWYQQKSPGSAPVTLIYNGSNRPSHIPSRFSGSTSGSTNTLTITGVQVEDEAIYFCGSTDTSTSVGIFGAGTTLTV
notes: Chicken hybridoma antibody; also called anti-CAPRIN-1 chicken monoclonal antibody #3
B11: chicken monoclonal antibody #4 (antibody, V domains shown)
VH: AVTLDESGGGLQTPGGAVSLVCKGSGFTFSSYGMGWVRQAPGKGLEYVAAIRKDGSTNYGPAVKGRATISRDNGQSTVRLQLSNLRAEDTATYYCAKRSHTGVNAAKIDAWGRGTEVIVS
VL: ALTQPASVSANPGETVKITCSGASHNYGWFQQKSPGSAPVTVIYSNDKRPSDIPSRFSGSKSGSTATLTITGVQADDEAVYFCGGYNIYGPTFGAGTTLTV
notes: Chicken hybridoma antibody; also called anti-CAPRIN-1 chicken monoclonal antibody #4

One test addresses T1, human CAPRIN-1 expressed on the surface …. In words: cell-based or functional assay.
As for B1, the “ADCC cytotoxic activity (51Cr release) against Caki-2” value is less than 8%, the “ADCC cytotoxic activity (51Cr release) against HCT-116” value was less than 3%, the “ADCC cytotoxic activity (51Cr release) against MCF7” value was less than 5% and the “ADCC cytotoxic activity (51Cr release) against MIAPaCa-2” value stood at 7%. Also, the “ADCC cytotoxic activity (51Cr release) against QG56” value was less than 5% and the “ADCC cytotoxic activity (51Cr release) against all other cancer cell lines listed” value was less than 4%.

On to B2, for which the “ADCC cytotoxic activity (51Cr release) against Caki-2” value is less than 8%, the “ADCC cytotoxic activity (51Cr release) against HCT-116” value is less than 3%, the “ADCC cytotoxic activity (51Cr release) against MCF7” value was less than 5% and the “ADCC cytotoxic activity (51Cr release) against MIAPaCa-2” value was 7%. The “ADCC cytotoxic activity (51Cr release) against QG56” value is less than 5% and the “ADCC cytotoxic activity (51Cr release) against all other cancer cell lines listed” value was less than 4%.

For the molecule B3, the “ADCC cytotoxic activity (51Cr release) against Caki-2” value is less than 8%, the “ADCC cytotoxic activity (51Cr release) against HCT-116” value is less than 3%, the “ADCC cytotoxic activity (51Cr release) against MCF7” value was less than 5% and the “ADCC cytotoxic activity (51Cr release) against MIAPaCa-2” value worked out at 7%. In addition, the “ADCC cytotoxic activity (51Cr release) against QG56” value was less than 5% and the “ADCC cytotoxic activity (51Cr release) against all other cancer cell lines listed” value was less than 4%.

B4: the “ADCC cytotoxic activity (51Cr release) against Caki-2” value was less than 8%, the “ADCC cytotoxic activity (51Cr release) against HCT-116” value was less than 3%, the “ADCC cytotoxic activity (51Cr release) against MCF7” value was less than 5% and the “ADCC cytotoxic activity (51Cr release) against MIAPaCa-2” value worked out at 7%. The “ADCC cytotoxic activity (51Cr release) against QG56” value was less than 5% and the “ADCC cytotoxic activity (51Cr release) against all other cancer cell lines listed” value was less than 4%.

As to B5, the “ADCC cytotoxic activity (51Cr release) against Caki-2” value was less than 8%, the “ADCC cytotoxic activity (51Cr release) against HCT-116” value was less than 3%, the “ADCC cytotoxic activity (51Cr release) against MCF7” value was less than 5% and the “ADCC cytotoxic activity (51Cr release) against MIAPaCa-2” value came to 7%. Also, the “ADCC cytotoxic activity (51Cr release) against QG56” value was less than 5% and the “ADCC cytotoxic activity (51Cr release) against all other cancer cell lines listed” value was less than 4%.

Take B6: the “ADCC cytotoxic activity (51Cr release) against Caki-2” value was less than 8%, the “ADCC cytotoxic activity (51Cr release) against HCT-116” value was less than 3%, the “ADCC cytotoxic activity (51Cr release) against MCF7” value is less than 5% and the “ADCC cytotoxic activity (51Cr release) against MIAPaCa-2” value amounted to 7%. Further, the “ADCC cytotoxic activity (51Cr release) against QG56” value was less than 5% and the “ADCC cytotoxic activity (51Cr release) against all other cancer cell lines listed” value is less than 4%.

For the next test the target is unchanged. Briefly: flow cytometry on the listed human cancer cell lines, culture supernatant, against secondary antibody only. As for the experimental part:
10⁶ cells of each cell line were centrifuged in each 1.5-ml microcentrifuge tube. Each culture supernatant (100 μl) containing any of the antibodies #1, #2, and #3 and the chicken monoclonal antibodies #1, #2, #3, and #4 was added to the tube and left to stand for 1 hour on ice. After washing with PBS, FITC-labeled goat anti-mouse IgG (H+L) antibodies (manufactured by Jackson ImmunoResearch Laboratories, Inc.) diluted with PBS containing 0.1% FBS for the mouse-derived antibodies or FITC-labeled goat anti-chicken IgG (H+L) antibodies (manufactured by SouthernBiotech) diluted 100-fold with PBS containing 0.1% FBS for the chicken-derived antibodies were added thereto and left to stand at 4° C. for 30 minutes. After washing with PBS, the fluorescence intensity was measured using FACSCalibur (Becton, Dickinson and Company). The negative control used was cells reacted only with secondary antibodies. As a result, all the cells each treated with any of the antibodies #1, #2, and #3 and the chicken monoclonal antibodies #1 to #4 had fluorescence intensity at least 35% stronger than that of the negative control. […] The rates of enhancement in the fluorescence intensity was expressed as the rates of increase in mean fluorescence intensity (MFI) in respective cell lines, which are calculated according to the following formula.
(In flow cytometry, cells or beads pass a laser one at a time.)
In the case of B7, the “rate of increase in mean fluorescence intensity” value (“rate of increase” below) was not below 35%.

On to B8, for which the “rate of increase” value was not below 35%.

In the case of B9, the “rate of increase” value is not below 35%.

In the case of B10, the “rate of increase” value is not below 35%.

Turning to B11, the “rate of increase” value was not below 35%.
